Patent US20220064303A1 (GIGAGEN, published 2022)

Key:
[1] = target: CTLA-4 on CTLA-4 effector cells (CTLA-4 Blockade Bioassay, Promega) (UniProt P16410 36-223, limits assumed); assay: cell-based or functional assay
Cyno CTLA4 = target: T1, Cyno CTLA4 (cyno, UniProt G7PL88 36-161); assay: BLI (Octet Red96), mAb on AHC biosensor, antigen as analyte
T1 construct: Soluble antigen used as analyte in BLI
Description: The binding specificity and affinity of each full-length antibody towards CTLA-4 were determined using biolayer interferometry (BLI) and/or surface plasmon resonance (SPR). Anti-cyno CTLA-4 and anti-mouse CTLA-4 affinities were tested using ForteBio (BLI). Anti-human CTLA-4 affinities were measured using Carterra (SPR).
For BLI, antibodies were loaded onto an Anti-Human IgG Fc (AHC) biosensor using the Octet Red96 system (ForteBio). Loaded biosensors were dipped into antigen dilutions beginning at 300 nM, with 6 serial dilutions at 1:3. Kinetic analysis was performed using a 1:1 binding model and global fitting.

Chain of CTLA-4 on CTLA-4 effector cells (CTLA-4 Blockade Bioassay, Promega) (P16410 36-223 limits assumed): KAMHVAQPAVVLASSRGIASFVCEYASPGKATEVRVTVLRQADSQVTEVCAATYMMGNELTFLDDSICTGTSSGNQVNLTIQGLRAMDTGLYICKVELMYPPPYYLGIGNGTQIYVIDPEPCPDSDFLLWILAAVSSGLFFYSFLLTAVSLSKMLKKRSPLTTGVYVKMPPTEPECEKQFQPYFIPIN
T1 sequence (G7PL88 entry or part of it): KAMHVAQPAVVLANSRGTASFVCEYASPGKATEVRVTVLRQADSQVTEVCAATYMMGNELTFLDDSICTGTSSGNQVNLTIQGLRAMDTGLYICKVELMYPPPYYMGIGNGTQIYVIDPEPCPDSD

| Promega assay % inhibition [1] [%] | Kd (Cyno CTLA4) [nM] | Binder |
| --- | --- | --- |
| 0 | – | A28 (antibody, V domains shown) VH: QVQLVESGGGVVQPGRSLGLSCAASGFTFSTYGMHWVRQAPGKGLEWVAVTLYDGSNKYYADSVKGRFTISRDNSKNTLYLQMNSLRAEDTAVYYCARASLTGSFDYWGQGTLVTVSS VL: not shown |
| – | 1.3 | Ipilimumab (antibody, V domains shown) VH: QVQLVESGGGVVQPGRSLRLSCAASGFTFSSYTMHWVRQAPGKGLEWVTFISYDGNNKYYADSVKGRFTISRDNSKNTLYLQMNSLRAEDTAIYYCARTGWLGPFDYWGQGTLVTVSS VL: not shown |
| 0 | – | A23 (antibody, V domains shown) VH: QVQLVQSGAEVKKPGASVKVSCKASGYTFTSYGISWVRQAPGQGLEWMGWISAYNGNTYYAQKFQGRVTMTTDTSTSTAYVELRSLRSDDTAVYYCARVTGRDAFDIWGQGTMVTVSS VL: not shown |
